Results from patent US20130224191A1, “NOTUM PROTEIN MODULATORS AND METHODS OF USE” (priority 2010, published 2013).

Assays:
[1] = system: Wnt3A-mediated induction of luciferase in the 293.TCF cells; test: Wnt3A canonical signaling assay, bioactivity of Notum constructs; assay type: cell-based, human; details: without added Notum
Summary of the method: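 293.TCF cells (HEK 293T stably carrying a TCF-driven GFP/luciferase reporter), 2.5×10^4 per well, serum-starved 23 h, then given Notum proteins 1 h before Wnt3A or control L-cell conditioned medium.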

[2] = system: mouse lineage-depleted NTX tumor cells from SCRx-CR4; test: Cell survival/proliferation, CellTiterGlo, SCRx-CR4; assay type: cell-based, human; details: antibody 10 μg/mL, versus MOPC isotype control
Experimental: To determine whether Notum protein impacts cell proliferation and/or apoptosis of human colorectal cancer cells, HCT-116 cells or mouse lineage-depleted NTX tumor cells (i.e. human tumor cells) were plated as described below and exposed to recombinant hNotum (e.g. hNotum-His or hNotum-hFc) and anti-Notum antibodies. Cell numbers were then assessed 12-14 days later.
Cells were then incubated for 14 days at 37° C., 5% CO2 and 5% O2 and the number of viable cells was assessed using Promega's CellTiterGlo assay kit per the manufacturer's instructions. For the HCT-116 cell line (a commercially available colorectal tumor cell line), cells were plated at 2,000 cells per well in DMEM+1% FBS, followed 24-hours later by the addition of serum free DMEM containing recombinant human Notum in the presence or absence of monoclonal antibodies SC2.D2.2 or SC2.10B3. HCT-116 cells were then incubated for 12 days at 37° C., 5% CO2 and cell viability was assessed with Promega's CellTiterGlo assay kit. Higher readings are indicative of higher viable cell counts.

human Notum D141N, D141S = target: T1, human Notum D141N, D141S (Homo sapiens, UniProt Q6P988, D141N); test: Neutralization of point mutated human Notum, TCF assay; assay type: cell-based; details: human D141N or D141S
T1 construct: made in house
T1 sequence (Q6P988 20-496 D141N): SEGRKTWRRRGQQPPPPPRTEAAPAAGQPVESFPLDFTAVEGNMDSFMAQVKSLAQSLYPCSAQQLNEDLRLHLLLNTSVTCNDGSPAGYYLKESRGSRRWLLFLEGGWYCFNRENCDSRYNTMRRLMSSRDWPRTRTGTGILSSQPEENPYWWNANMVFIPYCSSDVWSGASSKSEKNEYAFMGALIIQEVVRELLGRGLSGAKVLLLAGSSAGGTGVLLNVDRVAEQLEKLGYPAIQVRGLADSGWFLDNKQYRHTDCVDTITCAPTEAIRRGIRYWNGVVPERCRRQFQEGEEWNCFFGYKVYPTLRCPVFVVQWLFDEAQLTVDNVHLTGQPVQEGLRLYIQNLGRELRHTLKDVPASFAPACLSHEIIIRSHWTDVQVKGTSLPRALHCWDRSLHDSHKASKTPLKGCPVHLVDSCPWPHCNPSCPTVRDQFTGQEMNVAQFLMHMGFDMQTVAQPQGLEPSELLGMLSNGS
Excerpt: Similarly, the macaque residue at this position was point mutated to the human residue (N141D). […] However, these point mutants differed in their ability to be neutralized by SC2.D2.2 (FIG. 26).

B1: SC2.D2.2 (antibody, V domains shown)
VH: DVQLVESGGGLVQPGGSRKISCAASGFTFSSYGMHWVRQAPEKGLEWVAYISSSTVTTYYADTVKGRFTISRDNANNTLFLQMTSLRSEDTAMYYCSRQNWDGGYFDVWGAGTTVTVSS
VL: DIVLTQSLASLAVSLGQRATISCRASKSVSSSGYSYMHWYQQKPGQPPKLLIYLASNLESGVPARFSGSGSGTDFTLNIHPVEEEDAATYYCQHSRALPLTFGAGTKLELKR
notes: also called murine SC2.D2.2
effect of antibody alone on induction of luciferase due to Wnt3A CM [1]: does not inhibit the induction of luciferase due to Wnt3A CM | effect on proliferation / cell numbers [2]: significantly less proliferation | neutralization of mutant Notum protein (human Notum D141N, D141S): eliminated the ability of SC2.D2.2 to neutralize the mutant Notum protein
